Tests used:
GST-cortactin SH3 domain = GST-cortactin SH3 domain (UniProt Q14247 492-550); experiment: pull-down
GST-Src SH3 domain = GST-Src SH3 domain (UniProt P12931 84-145); experiment: pull-down

GST-cortactin SH3 domain, sequence (Q14247 492-550): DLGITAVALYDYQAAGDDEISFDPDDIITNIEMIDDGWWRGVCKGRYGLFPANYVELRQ

fold increase in the ratio pulled down over GST control (GST-cortactin SH3 domain) [fold] | fold increase in the ratio pulled down over GST control (GST-Src SH3 domain) [fold] | Binder
~9 |  | GFP-AFAP1L1 (Actin Filament Associated Protein 1 Like 1) (natural protein, human, UniProt Q8TED9 1-768, looked up) MDRGQVLEQLLPELTGLLSLLDHEYLSDTTLEKKMAVASILQSLQPLPAKEVSYLYVNTADLHSGPSFVESLFEEFDCDLSDLRDMPEDDGEPSKGASPELAKSPRLRNAADLPPPLPNKPPPEDYYEEALPLGPGKSPEYISSHNGCSPSHSIVDGYYEDADSSYPATRVNGELKSSYNDSDAMSSSYESYDEEEEEGKSPQPRHQWPSEEASMHLVRECRICAFLLRKKRFGQWAKQLTVIREDQLLCYKSSKDRQPHLRLALDTCSIIYVPKDSRHKRHELRFTQGATEVLVLALQSREQAEEWLKVIREVSKPVGGAEGVEVPRSPVLLCKLDLDKRLSQEKQTSDSDSVGVGDNCSTLGRRETCDHGKGKKSSLAELKGSMSRAAGRKITRIIGFSKKKTLADDLQTSSTEEEVPCCGYLNVLVNQGWKERWCRLKCNTLYFHKDHMDLRTHVNAIALQGCEVAPGFGPRHPFAFRILRNRQEVAILEASCSEDMGRWLGLLLVEMGSRVTPEALHYDYVDVETLTSIVSAGRNSFLYARSCQNQWPEPRVYDDVPYEKMQDEEPERPTGAQVKRHASSCSEKSHRVDPQVKVKRHASSANQYKYGKNRAEEDARRYLVEKEKLEKEKETIRTELIALRQEKRELKEAIRSSPGAKLKALEEAVATLEAQCRAKEERRIDLELKLVAVKERLQQSLAGGPALGLSVSSKPKSGETANKPQNSVPEQPLPVNCVSELRKRSPSIVASNQGRVLQKAKEWEMKKT
 | 14 | GFP-AFAP1 (Actin Filament-Associated Protein of 110 kDa) (natural protein, UniProt Q8N556 1-730, looked up) MEELIVELRLFLELLDHEYLTSTVREKKAVITNILLRIQSSKGFDVKDHAQKQETANSLPAPPQMPLPEIPQPWLPPDSGPPPLPTSSLPEGYYEEAVPLSPGKAPEYITSNYDSDAMSSSYESYDEEEEDGKGKKTRHQWPSEEASMDLVKDAKICAFLLRKKRFGQWTKLLCVIKDTKLLCYKSSKDQQPQMELPLQGCNITYIPKDSKKKKHELKITQQGTDPLVLAVQSKEQAEQWLKVIKEAYSGCSGPVDSECPPPPSSPVHKAELEKKLSSERPSSDGEGVVENGITTCNGKEQVKRKKSSKSEAKGTVSKVTGKKITKIISLGKKKPSTDEQTSSAEEDVPTCGYLNVLSNSRWRERWCRVKDNKLIFHKDRTDLKTHIVSIPLRGCEVIPGLDSKHPLTFRLLRNGQEVAVLEASSSEDMGRWIGILLAETGSSTDPEALHYDYIDVEMSASVIQTAKQTFCFMNRRVISANPYLGGTSNGYAHPSGTALHYDDVPCINGSLKGKKPPVASNGVTGKGKTLSSQPKKADPAAVVKRTGSNAAQYKYGKNRVEADAKRLQTKEEELLKRKEALRNRLAQLRKERKDLRAAIEVNAGRKPQAILEEKLKQLEEECRQKEAERVSLELELTEVKESLKKALAGGVTLGLAIEPKSGTSSPQSPVFRHRTLENSPISSCDTSDTEGPVPVNSAAVLKKSQAAPGSSPCRGHVLRKAKEWELKNGT
